Reference: article PMC11142921, “Antibody discovery identifies regulatory mechanisms of protein arginine deiminase 4” (Nature Chemical Biology, 2024)
Positions count from the first letter of the chain named. Names and notes keep the numbering of the source.

What was measured:
[1] = molecular target: T1, human protein arginine deiminase 4 (hPAD4), wild type (human, UniProt Q9UM07, biotin on the N-terminal AviTag); assay: negative-stain EM; hPAD4 incubated with Fab fragments in equimolar amounts; 2D micrographs; uranyl formate stain; conditions: both partners purified
T1 construct: Protein arginine deiminase 4, human; 'full length hPAD4 (74 kDa)'; PreScission or TEV site between the tags and PAD4; Tags were captured on streptavidin in BLI and ELISA; In solution it is in a dimer-monomer equilibrium; also called hPADI4; WT hPAD4; source: BirA-expressing E. coli (C43 (DE3) Pro+ or BL21 Gold (DE3)), purified (Ni-NTA, 0.5 mM TCEP); not shown: AviTag, N-terminal, kept
T1 sequence (Q9UM07 whole entry, the tested form may be a part): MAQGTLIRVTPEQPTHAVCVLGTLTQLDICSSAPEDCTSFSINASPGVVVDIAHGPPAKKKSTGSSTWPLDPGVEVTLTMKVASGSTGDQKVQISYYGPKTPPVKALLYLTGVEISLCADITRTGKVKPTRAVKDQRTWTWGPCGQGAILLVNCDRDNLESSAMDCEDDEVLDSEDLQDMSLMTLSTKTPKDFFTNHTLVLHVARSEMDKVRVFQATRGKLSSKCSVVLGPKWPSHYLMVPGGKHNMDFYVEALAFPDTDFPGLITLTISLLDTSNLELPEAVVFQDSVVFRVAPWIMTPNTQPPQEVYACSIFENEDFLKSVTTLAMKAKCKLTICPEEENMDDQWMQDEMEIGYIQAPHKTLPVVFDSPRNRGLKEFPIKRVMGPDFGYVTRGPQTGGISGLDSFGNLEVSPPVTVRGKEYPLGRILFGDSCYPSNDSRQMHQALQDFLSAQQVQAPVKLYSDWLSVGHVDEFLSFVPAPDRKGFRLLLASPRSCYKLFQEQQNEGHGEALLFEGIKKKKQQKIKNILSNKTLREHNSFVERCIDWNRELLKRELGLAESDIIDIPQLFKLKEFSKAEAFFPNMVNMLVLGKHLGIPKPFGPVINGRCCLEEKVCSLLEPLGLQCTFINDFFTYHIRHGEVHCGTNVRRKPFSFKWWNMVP

[2] = molecular target: T1, human protein arginine deiminase 4 …; assay: BLI; binding of the functional human antibodies to PAD4, PAD2 and PAD3; who was immobilised and the antibody format are not told for this experiment; conditions: both partners purified
PAD2 = molecular target: T2, PAD2 (Homo sapiens (assumed), UniProt Q9Y2J8); assay: as above; conditions: both partners purified
T2 construct: PAD2, commercially available; also called protein arginine deiminase 2
T2 sequence (Q9Y2J8 whole entry): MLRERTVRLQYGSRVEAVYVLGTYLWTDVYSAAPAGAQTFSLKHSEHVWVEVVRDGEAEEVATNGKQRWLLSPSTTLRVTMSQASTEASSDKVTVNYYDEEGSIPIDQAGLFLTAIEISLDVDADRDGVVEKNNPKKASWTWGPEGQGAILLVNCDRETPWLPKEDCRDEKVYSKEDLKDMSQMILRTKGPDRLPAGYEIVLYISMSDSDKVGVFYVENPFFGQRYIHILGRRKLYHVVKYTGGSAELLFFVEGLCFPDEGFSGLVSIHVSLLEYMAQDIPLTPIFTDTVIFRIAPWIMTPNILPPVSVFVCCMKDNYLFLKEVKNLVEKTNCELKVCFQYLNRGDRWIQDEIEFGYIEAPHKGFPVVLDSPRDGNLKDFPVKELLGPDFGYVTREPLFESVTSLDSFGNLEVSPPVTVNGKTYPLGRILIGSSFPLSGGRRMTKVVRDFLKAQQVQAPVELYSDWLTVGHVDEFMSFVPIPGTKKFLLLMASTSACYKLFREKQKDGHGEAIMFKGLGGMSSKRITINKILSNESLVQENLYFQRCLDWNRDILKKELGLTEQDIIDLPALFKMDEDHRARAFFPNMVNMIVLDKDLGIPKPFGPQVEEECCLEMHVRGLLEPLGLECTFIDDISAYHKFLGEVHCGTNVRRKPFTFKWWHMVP

[3] = molecular target: T1, human protein arginine deiminase 4 …; assay: BLI; Octet RED384; biotinylated hPAD4 on streptavidin biosensors, antibody (IgG by the legend) as analyte; TBSTB; 2 and 10 mM Ca2+; 1:1 monovalent model; conditions: both partners purified
[4] = molecular target: T3, mouse protein arginine deiminase 4 (mPAD4) (Mus musculus, UniProt Q9Z183, biotin on the N-terminal AviTag); assay: BLI; Octet RED384; biotinylated mPAD4 on streptavidin biosensors, antibody as analyte; TBSTB; 10 mM Ca2+; conditions: both partners purified
T3 construct: Protein arginine deiminase 4, mouse; PreScission or TEV site between the tags and PAD4; also called murine PAD4; source: BirA-expressing E. coli (C43 (DE3) Pro+ or BL21 Gold (DE3)), purified (Ni-NTA, 0.5 mM TCEP); not shown: AviTag, N-terminal, kept
T3 sequence (Q9Z183 whole entry): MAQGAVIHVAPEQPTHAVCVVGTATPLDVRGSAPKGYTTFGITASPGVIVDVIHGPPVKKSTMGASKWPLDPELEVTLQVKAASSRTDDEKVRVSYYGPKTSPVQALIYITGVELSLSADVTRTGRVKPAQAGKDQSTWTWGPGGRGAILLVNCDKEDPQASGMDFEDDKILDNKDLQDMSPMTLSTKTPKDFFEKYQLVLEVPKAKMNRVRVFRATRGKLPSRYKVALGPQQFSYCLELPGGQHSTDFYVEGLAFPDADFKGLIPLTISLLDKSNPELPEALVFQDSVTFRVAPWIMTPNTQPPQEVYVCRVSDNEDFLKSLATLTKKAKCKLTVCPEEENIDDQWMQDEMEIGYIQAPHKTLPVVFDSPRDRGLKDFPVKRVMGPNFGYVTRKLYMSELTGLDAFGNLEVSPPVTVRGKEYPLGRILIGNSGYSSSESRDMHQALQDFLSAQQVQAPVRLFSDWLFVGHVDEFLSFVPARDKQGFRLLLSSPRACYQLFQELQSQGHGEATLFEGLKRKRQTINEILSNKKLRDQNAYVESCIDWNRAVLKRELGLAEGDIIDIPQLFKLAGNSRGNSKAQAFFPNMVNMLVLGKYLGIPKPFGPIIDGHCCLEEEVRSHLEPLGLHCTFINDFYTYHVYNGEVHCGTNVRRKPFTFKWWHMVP

[5] = molecular target: T3, mouse protein arginine deiminase 4 …; assay: BLI; Octet RED384; biotinylated mPAD4 on streptavidin biosensors, antibody as analyte; TBSTB; calcium-free form of mPAD4; conditions: both partners purified
hPAD4 R8E = molecular target: T4, hPAD4 R8E (human, UniProt Q9UM07, R8E); assay: BLI; Octet RED384; biotinylated hPAD4 (WT or mutant) on streptavidin biosensors, purified binder as analyte; TBSTB; calcium concentration not told for these experiments; 1:1 monovalent model; conditions: both partners purified
T4 construct: Protein arginine deiminase 4, human, point mutant; Mutant of the hPAD4 construct m1; source: cloned and expressed as hPAD4 (E. coli, Ni-NTA)
T4 sequence (Q9UM07 whole entry R8E): as the sequence (Q9UM07 whole entry, the tested form may be a part) above, with R8E counted along it

hPAD4 Y435A = molecular target: T5, hPAD4 Y435A (human, UniProt Q9UM07, Y435A); assay: as above; conditions: both partners purified
T5 construct: Protein arginine deiminase 4, human, point mutant; Mutant of the hPAD4 construct m1; source: cloned and expressed as hPAD4 (E. coli, Ni-NTA)
T5 sequence (Q9UM07 whole entry Y435A): as the sequence (Q9UM07 whole entry, the tested form may be a part) above, with Y435A counted along it

[6] = molecular target: T6, hPAD4 R8E–Y435A double mutant (human, UniProt Q9UM07, R8E | Y435A); assay: as above; conditions: both partners purified
T6 construct: Protein arginine deiminase 4, human, double mutant; Mutant of the hPAD4 construct m1; also called R8E/Y435 double mutant; source: cloned and expressed as hPAD4 (E. coli, Ni-NTA)
T6 sequence (Q9UM07 whole entry R8E/Y435A): as the sequence (Q9UM07 whole entry, the tested form may be a part) above, with R8E, Y435A counted along it

[7] = molecular target: T1, human protein arginine deiminase 4 …; assay: cell-based or functional assay
PAD3 = molecular target: T7, PAD3 (Homo sapiens (assumed), UniProt Q9ULW8); assay: BLI; binding of the functional human antibodies to PAD4, PAD2 and PAD3; who was immobilised and the antibody format are not told for this experiment; conditions: both partners purified
T7 construct: PAD3, commercially available; also called protein arginine deiminase 3
T7 sequence (Q9ULW8 whole entry): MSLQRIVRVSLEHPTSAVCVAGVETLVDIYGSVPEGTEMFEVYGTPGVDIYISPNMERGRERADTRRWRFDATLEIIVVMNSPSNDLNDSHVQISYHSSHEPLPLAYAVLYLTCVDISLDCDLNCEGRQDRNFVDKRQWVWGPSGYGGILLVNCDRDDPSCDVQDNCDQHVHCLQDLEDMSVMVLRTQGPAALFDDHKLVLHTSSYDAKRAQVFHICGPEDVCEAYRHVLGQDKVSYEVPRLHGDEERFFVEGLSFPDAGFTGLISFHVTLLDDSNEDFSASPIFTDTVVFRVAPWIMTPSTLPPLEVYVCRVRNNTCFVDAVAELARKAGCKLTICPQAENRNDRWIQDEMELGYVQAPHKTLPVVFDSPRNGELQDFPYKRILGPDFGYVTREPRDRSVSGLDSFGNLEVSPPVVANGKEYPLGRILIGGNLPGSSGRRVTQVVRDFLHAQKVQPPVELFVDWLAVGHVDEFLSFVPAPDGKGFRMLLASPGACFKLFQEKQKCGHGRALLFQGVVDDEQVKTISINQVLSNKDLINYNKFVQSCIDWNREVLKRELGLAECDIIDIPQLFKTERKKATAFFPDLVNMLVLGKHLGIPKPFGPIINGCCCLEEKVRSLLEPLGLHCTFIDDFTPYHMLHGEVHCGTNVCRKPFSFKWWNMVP

[8] = molecular target: T1, human protein arginine deiminase 4 …; assay: BLI; Octet RED384; biotinylated hPAD4 (WT or mutant) on streptavidin biosensors, purified binder as analyte; TBSTB; calcium concentration not told for these experiments; 1:1 monovalent model; conditions: both partners purified

B1: hI281 Fab (Fab, V domains shown)
VH: EVQLVESGGGLVQPGGSLRLSCAASGFNVSYSSIHWVRQAPGKGLEWVASIYPYYGSTSYADSVKGRFTISADTSKNTAYLQMNSLRAEDTAVYYCARQMYYWMFSKLALDYWGQGTLVTVSS
VL: DIQMTQSPSSLSASVGDRVTITCRASQSVSSAVAWYQQKPGKAPKLLIYSASSLYSGVPSRFSGSRSGTDFTLTISSLQPEDFATYYCQQSYYRTLFTFGQGTKVEIK
notes: Fab heavy chain of hI281; light chain of hI281; From synthetic Fab-phage library E (4D5-type scaffold); also called Fab-hI281; source: E. coli C43 (DE3) Pro+, purified (Ni-NTA)
- binding result [1]: binds

B2: hA362 IgG (antibody, V domains shown)
VH: EVQLVESGGGLVQPGGSLRLSCAASGFNVSYYSIHWVRQAPGKGLEWVASISPYYGSTYYADSVKGRFTISADTSKNTAYLQMNSLRAEDTAVYYCARHPYRKGYSGLDYWGQGTLVTVSS
VL: B1 VL with Y92S, R94L, T95P
notes: heavy chain of hA362 fused to hIgG1-Fc (pFUSE-hIgG1-Fc); as the light chain of m13; IgG1; source: Expi293, transiently cotransfected, purified (protein A or Ni-NTA); copies: 2 + 2
- binding result [2]: binds
- binding result (PAD2): no binding

B3: hI281 IgG (antibody, V domains shown)
VH: B1 VH
VL: B1 VL
notes: heavy chain of hI281 fused to hIgG1-Fc (pFUSE-hIgG1-Fc); as the light chain of m10; IgG1; source: Expi293, transiently cotransfected, purified (protein A or Ni-NTA); copies: 2 + 2
- binding result [3]: binds

B4: mA342 IgG (antibody, V domains shown)
VH: EVQLVESGGGLVQPGGSLRLSCAASGFNVYSSSIHWVRQAPGKGLEWVASISSSSGYTYYADSVKGRFTISADTSKNTAYLQMNSLRAEDTAVYYCARYSYSIYYYSGYPYYHMGLDYWGQGTLVTVSS
VL: B1 VL with S91W, Y92S, R94S, T95R, F97I
notes: heavy chain of mA342 fused to hIgG1-Fc (pFUSE-hIgG1-Fc); light chain of mA342; also called WT mA342; source: Expi293, transiently cotransfected, purified (protein A or Ni-NTA); copies: 2 + 2
- Kd [4]: < 1 nM
- Kd [5]: 200000 nM

B5: hA362 Fab (Fab, V domains shown)
VH: B2 VH
VL: B1 VL with Y92S, R94L, T95P
notes: Fab heavy chain of hA362; light chain of hA362; also called Fab hA362; source: E. coli C43 (DE3) Pro+, purified (Ni-NTA)
- binding result [1]: binds
- fold decrease of binding affinity against WT hPAD4 (hPAD4 R8E): ~3 fold
- fold decrease of binding affinity against WT hPAD4 (hPAD4 Y435A): ~10 fold
- fold decrease of binding affinity against WT hPAD4 [6]: ~160 fold

B6: hA288 Fab (Fab, V domains shown)
VH: EVQLVESGGGLVQPGGSLRLSCAASGFNVYYSSIHWVRQAPGKGLEWVASIYSYSGSTSYADSVKGRFTISADTSKNTAYLQMNSLRAEDTAVYYCARYWPKMAGYWYIYRFALDYWGQGTLVTVSS
VL: B1 VL with S91Y, Y92R, Y93Q, R94Y, T95N, F97I
notes: Fab heavy chain of hA288; light chain of hA288; source: E. coli C43 (DE3) Pro+, purified (Ni-NTA)
- binding result [1]: binds

B7: mA342-c3 (antibody, V domains shown)
VH: B4 VH with Y101A, Y111A, M114A
VL: B1 VL with S91W, Y92S, R94S, T95R, F97A
notes: as the heavy chain of m20 with the stated changes; as the light chain of m20 with the stated change; The text names it mA342-c3, the legends mA342-c4
- binding result [4]: binds

B8: E3 (affinity-matured variant of hI365) (antibody, V domains shown)
VH: EVQLVESGGGLVQPGGSLRLSCAASGFNFFYSIHWVRQAPGKGLEWVASISPYTDYTSYADSVKGRFTISADTSKNTAYLQMNSLRAEDTAVYYCARKHPGSYPFWGFALDYWGQGTLVTVSS
VL: DIQMTQSPSSLSASVGDRVTITCRASQSVSSAVAWYQQKPGKAPKLLIYSASSLYSGVPSRFSGSRSGTDFTLTISSLQPEDFATYYCQQSSSSLVTFGQGTKVEIK
- IC50 of PAD4 inhibition [7]: 94 nM
- IC50 of inhibition of PAD4 citrullination of histone H3 (western blot) [7]: 95 nM

B9: E6 (affinity-matured variant of hI365) (antibody, V domains shown)
VH: B8 VH with F30Y, Y56R, S102R, F105N
VL: B1 VL with Y92M, Y93S, R94S, T95Q, F97V
notes: variant of the heavy chain of hI365 from soft-randomisation libraries; variant of the light chain of hI365; CDR L3 of ten amino acids; also called clone E6
- IC50 of inhibition of PAD4 citrullination of histone H3 (western blot) [7]: 13 nM
- binding result (PAD3): no binding

B10: hI365 IgG (antibody, V domains shown)
VH: B8 VH with F30Y, T54S, D55G, F108W
VL: B8 VL
notes: heavy chain of hI365 fused to hIgG1-Fc (pFUSE-hIgG1-Fc); as the light chain of m16; also called WT hI365; source: Expi293, transiently cotransfected, purified (protein A or Ni-NTA); copies: 2 + 2
- Kd [3]: 1.2 nM

B11: hI365 G58D (antibody, V domains shown)
VH: B8 VH with F30Y, T54S, F108W
VL: B8 VL
notes: as the heavy chain of hI365 with the stated change; as the light chain of hI365; also called mutant G58D
- binding result [8]: binds

B12: hI364 IgG (antibody, V domains shown)
VH: EVQLVESGGGLVQPGGSLRLSCAASGFNVYSSSIHWVRQAPGKGLEWVASISSSSGSTSYADSVKGRFTISADTSKNTAYLQMNSLRAEDTAVYYCARYSDHYYYWSYWSSWYSGLDYWGQGTLVTVSS
VL: B8 VL with V96I
notes: heavy chain of hI364 fused to hIgG1-Fc (pFUSE-hIgG1-Fc); light chain of hI364; The activity screen and the selection were done with the Fab form; source: Expi293, transiently cotransfected, purified (protein A or Ni-NTA); copies: 2 + 2
- Kd [3]: 0.64 nM
